Test results: US20230312671A1 (ST JUDE CHILDREN S RESEARCH HOSPITAL, published 2023)
Where no end group is shown, it is not given here. The star is where a group is joined. Biotin = O=C1N[C@H]2[C@H](CS[C@H]2CCCCC(=O)*)N1; Ahx = NCCCCCC(=O)O

Molecular target: T1, Glucose-regulated-protein 78 (GRP78), cell surface (UniProt P11021 19-654, limits assumed)
T1 construct: whole, on cells; The target was endogenous GRP78 on human tumour cell lines; No recombinant GRP78 was used; also called BiP; HSPA5
Test: flow cytometry on AML and solid tumor cell lines, Streptavidin PE detection
Description: Anti-KDEL antibody for detection of cell surface GRP78 (Abcam, Clone-10C3; Cat. No. ab115638) and Streptavidin PE (BioLegend, San Diego, CA. Cat. No 405204 were used for flow cytometric analysis. A GRP78-binding peptide ([…] (SEQ ID NO: 1)) with an N-terminal Biotin tag (Biotin-Ahx-[…] (SEQ ID NO: 71)) was obtained from Genscript). The following antibodies purchased from BD Biosciences were used for flow cytometry: CD4, CD8, CCR7 FITC, CD45RA APC, CD19 APC, CD19 PE, CD8 APC-H7, CD4-KrO, TIM3 PE-Cy7, LAG3 PE, and PD1 BV605. Recombinant Human ErbB2/Her2 Fc Chimera Protein (R&D Systems, Cat. No 1129-ER) was used to detect HER2 CAR. Half a million Transduced and Non-Transduced T Cells were washed with 1×PBS and the cells were incubated with 3 μL of antibody and Fixable Live Dead aqua stain (Thermo Fisher Scientific, L34965) on ice and protected from light for 30 mins. Cells were washed with 1×PBS+2% FBS. FACS was carried out using FACS Canto II or Lyric (BD Biosciences). The analysis was performed using FlowJo 10.5.3 software (BD Biosciences, San Jose, CA).

T1 sequence (P11021 19-654 limits assumed): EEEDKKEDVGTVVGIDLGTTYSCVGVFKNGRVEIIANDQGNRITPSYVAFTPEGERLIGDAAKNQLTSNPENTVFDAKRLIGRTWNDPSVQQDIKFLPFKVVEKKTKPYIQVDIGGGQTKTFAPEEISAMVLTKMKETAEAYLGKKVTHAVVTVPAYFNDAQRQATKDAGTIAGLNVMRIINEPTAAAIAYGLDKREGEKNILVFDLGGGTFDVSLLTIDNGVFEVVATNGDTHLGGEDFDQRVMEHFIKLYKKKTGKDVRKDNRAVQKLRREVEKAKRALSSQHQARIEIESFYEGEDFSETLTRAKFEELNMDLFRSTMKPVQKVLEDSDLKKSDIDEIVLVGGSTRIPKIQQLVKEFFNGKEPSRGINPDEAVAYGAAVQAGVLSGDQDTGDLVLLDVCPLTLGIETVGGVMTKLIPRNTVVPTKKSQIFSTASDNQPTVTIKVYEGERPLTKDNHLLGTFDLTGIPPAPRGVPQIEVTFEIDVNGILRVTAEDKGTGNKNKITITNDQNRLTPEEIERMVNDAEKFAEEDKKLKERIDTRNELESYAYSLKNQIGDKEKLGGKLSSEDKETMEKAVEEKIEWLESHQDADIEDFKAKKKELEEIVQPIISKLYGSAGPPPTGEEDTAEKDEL

binding result: binds
B1: biotin-conjugated GRP78-binding peptide (Biotin-Ahx-CTVALPGGYVRVC) (peptide)
peptide: {Biotin-Ahx}-CTVALPGGYVRVC
modifications: cysteine pairing not given here
notes: Synthetic 13-mer from Genscript, detected with Streptavidin PE in flow cytometry; also called biotin-conjugated peptide
